B2: CARD-11-CARD fused to the NF-kB activation domain (pCMV-CARD-11/AD) (other, mouse)
chain: SPMLLPSGQISNQALALAPSSAPVLAQTMVPSSAMVPLAQPPAPAPVLTPGPPQSLSAPVPKSTQAGEGTLSEALLHLQFDADEDLGALLGNSTDPGVFTDLASVDNSEFQQLLNQGVSMSHSTAEPMLMEYPEAITRLVTGSQRPPDPAPTPLGTSGLPNGLSGDEDFSSIADMDFSALLSQISSEEDALWENVECNRHMLSRYINPAKLTPYLRQCKVIDEQDEDEVLNAPMLPSKINRAGRLLDILHTKGQRGYVVFLESLEFYYPELYKLVTGKE
B5: Bcl-10-CARD/BD (other, UniProt P04386 1-147, looked up)
chain: MKLLSSIEQACDICRLKKLKCSKEKPKCAKCLKNNWECRYSPKTKRSPLTRAHLTEVESRLERLEQLFLLIFPREDLDMILKMDSLQDIKALLTGLFVQDNVNKDAVTDRLASVETDMPLTLRQHRISATSSSEESSNKGQRQLTVSMEPTAPSLTEEDLTEVKKDALENLRVYLCEKIIAERHFDHLRAKKILSREDTEEISCRTSSRKRAGKLLDYLQENPKGLDTLVESIRREKTQNFLIQKITDEVL
notes: range 1-147;range 1-104; Two-hybrid construct in pCMV-BD; also called CARD of Bcl-10; CARD of Bcl10
B7: CARD-9-CARD/AD (other, mouse)
chain: SPMLLPSGQISNQALALAPSSAPVLAQTMVPSSAMVPLAQPPAPAPVLTPGPPQSLSAPVPKSTQAGEGTLSEALLHLQFDADEDLGALLGNSTDPGVFTDLASVDNSEFQQLLNQGVSMSHSTAEPMLMEYPEAITRLVTGSQRPPDPAPTPLGTSGLPNGLSGDEDFSSIADMDFSALLSQISSMSDYENDDECWNVLEGFRVTLTSVIDPSRITPYLRQCKVLNPDDEEQVLSDPNLVIRKRKVGVLLDILQRTGHKGYVAFLESLELYYPQLYKKVTGKEPARVFSMIIDAS

The target in assay [1] is Bcl-10 dominant negative deletion mutant (amino acids 1-104) (UniProt O95999). Description: cell-based or functional assay.
Assay [2] concerns the target B2. As to the kind of experiment: mammalian two-hybrid, 293T cells. As to the method: (§1) For the additional mammalian two-hybrid assays, 293T cells in 6-well plates (35-mm wells) were transfected with the following plasmids: 750 ng of pCMV-CARD-9/AD, 750 ng of pCMV-CARD/BD, 250 ng of pFR-Luc firefly reporter (Stratagene), and 250 ng of pRL-TK renilla reporter (Promega). For NF-?B assays, 293T cells were transfected with the following plasmids: 900 ng of pNF-kB luciferase reporter (Stratagene), 100 ng of pRL-TK renilla reporter (Promega) and 1000 ng of indicated expression plasmids. Cells were harvested 24 h after transfection, and firefly luciferase activity was determined using the Dual-Luciferase Reporter Assay System (Promega). In addition, renilla luciferase activity was determined and used to normalize transfection efficiencies.
(§2) To identify the binding partners of CARD-11, a mammalian two-hybrid analysis was performed using the CARD domains of 15 known proteins. For mammalian two-hybrid assays, 293T cells in 6-well plates (35-mm wells) were transfected with the following plasmids: 750 ng of pCMV-CARD-11/AD, 750 ng of pCMV-BD fused to individual CARD domains, 250 ng of pFR-Luc firefly reporter (Stratagene), and 250 ng of pRL-TK renilla reporter (Promega). pCMV-CARD-11 /AD and pCMV-CARD/BD plasmids were constructed by inserting individual CARD domains into pCMV-CARD/AD and pCMV-BD, respectively (Stratagene): Bcl-10 (residues 1-104), ARC (residues 1-110), RICK (residues 417-540), CARD-4 (residues 1-1 19), ASC (residues 92-195), caspase-I (residues 1-110), caspase-2 (residues 1-122), caspase-4 (residues 1-108), caspase-9 (residues 1-111), caspase-11 (residues 1-122), caspase-12 (residues 1-121), IAP-1 (residues 423-543), IAP-2 (residues 450-557), Apaf-1 (residues 1-108) and RAIDD (residues 1 -108). Cells were harvested 24 hours after transfection, and firefly luciferase activity was determined using the Dual-Luciferase Reporter Assay System (Promega). In addition, renilla luciferase activity was determined and used to normalize transfection efficiencies.

In assay [3] the target is B7. Description: mammalian two-hybrid, 293T cells. The procedure: as §1, §2
The target of assay [4] is B5. As to the kind of experiment: cell-based or functional assay.
Assay [5] deals with T1, Bcl-10-CARD/AD (mouse, UniProt Q04207 364-549; O95999 1-104).
T1 sequence (looked up): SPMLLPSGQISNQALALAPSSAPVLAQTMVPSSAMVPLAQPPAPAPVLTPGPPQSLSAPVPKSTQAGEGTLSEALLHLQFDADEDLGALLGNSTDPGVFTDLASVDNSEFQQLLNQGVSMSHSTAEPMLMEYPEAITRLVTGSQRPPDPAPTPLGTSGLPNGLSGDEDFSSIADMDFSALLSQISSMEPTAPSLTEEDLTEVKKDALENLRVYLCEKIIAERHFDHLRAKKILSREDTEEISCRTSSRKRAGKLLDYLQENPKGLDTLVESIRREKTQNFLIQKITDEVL
Description: cell-based or functional assay.

The source of these data is US20030113787A1 (Takeda / Millennium, published 2003).

“human CARD-11 (from UniProt Q9BXL7 8-1154)”: in assay [1], the NF-κB activity (luciferase reporter) left with dominant negative Bcl-10 (times above background) came to 1.7 and the NF-κB activity (luciferase reporter), reduction by dominant negative Bcl-10 was 4 fold.
In assay [1], “human CARD-10 (from UniProt Q9BWT7 1-1032)” came in with an NF-κB activity (luciferase reporter) left with dominant negative Bcl-10 (times above background) of 10 and an NF-κB activity (luciferase reporter), reduction by dominant negative Bcl-10 of 35 fold.

B1: CARD-4 CARD domain (residues 1-119) in pCMV-BD (other, UniProt P04386 1-147, looked up)
chain: MKLLSSIEQACDICRLKKLKCSKEKPKCAKCLKNNWECRYSPKTKRSPLTRAHLTEVESRLERLEQLFLLIFPREDLDMILKMDSLQDIKALLTGLFVQDNVNKDAVTDRLASVETDMPLTLRQHRISATSSSEESSNKGQRQLTVSMEEQGHSEMEIIPSESHPHIQLLKSNRELLVTHIRNTQCLVDNLLKNDYFSAEDAEIVCACPTQPDKVRKILDLVQSKGEEVSEFFLYLLQQLADAYVDLRPWLLEIGFSPSLLTQSKV
notes: range 1-147;range 1-119; Member of the two-hybrid CARD panel
As for B1, the binding result in assay [2] and in assay [3] was “no binding” in each case.
As for B2, in assay [4], the “relative luciferase activity (mammalian two-hybrid reporter)” value was 17 fold.

B3: RAIDD CARD domain (residues 1-108) in pCMV-BD (other, UniProt P04386 1-147, looked up)
chain: MKLLSSIEQACDICRLKKLKCSKEKPKCAKCLKNNWECRYSPKTKRSPLTRAHLTEVESRLERLEQLFLLIFPREDLDMILKMDSLQDIKALLTGLFVQDNVNKDAVTDRLASVETDMPLTLRQHRISATSSSEESSNKGQRQLTVSMEARDKQVLRSLRLELGAEVLVEGLVLQYLYQEGILTENHIQEINAQTTGLRKTMLLLDILPSRGPKAFDTFLDSLQEFPWVREKLKKAREEAMTDLPAGDRLTGIPS
notes: range 1-147;range 1-108; Member of the two-hybrid CARD panel
For the molecule B3, the binding result in assay [2] and in assay [3] was “no binding” each time.

B4: RICK CARD domain (residues 417-540) in pCMV-BD (other, UniProt P04386 1-147, looked up)
chain: MKLLSSIEQACDICRLKKLKCSKEKPKCAKCLKNNWECRYSPKTKRSPLTRAHLTEVESRLERLEQLFLLIFPREDLDMILKMDSLQDIKALLTGLFVQDNVNKDAVTDRLASVETDMPLTLRQHRISATSSSEESSNKGQRQLTVSAIINPLSTAGNSERLQPGIAQQWIQSKREDIVNQMTEACLNQSLDALLSRDLIMKEDYELVSTKPTRTSKVRQLLDTTDIQGEEFAKVIVQKLKDNKQMGLQPYPEILVVSRSPSLNLLQNKSM
notes: range 1-147;range 417-540; Member of the two-hybrid CARD panel
For the molecule B4, the binding result in assay [2] and in assay [3] was “no binding” each time.
In the case of B5, in assay [3], the binding result is on record as “binds”.

B6: caspase-12 CARD domain (residues 1-121) in pCMV-BD (other, UniProt P04386 1-147, looked up)
chain: MKLLSSIEQACDICRLKKLKCSKEKPKCAKCLKNNWECRYSPKTKRSPLTRAHLTEVESRLERLEQLFLLIFPREDLDMILKMDSLQDIKALLTGLFVQDNVNKDAVTDRLASVETDMPLTLRQHRISATSSSEESSNKGQRQLTVSMAARRTHERDPIYKIKGLAKDMLDGVFDDLVEKNVLNGDELLKIGESASFILNKAENLVENFLEKTDMAGKIFAGHIANSQEQLSLQFSNDEDDGPQKICTPSSPSESKRKVEDDEMEVNA
notes: range 1-147;range 1-121; Member of the two-hybrid CARD panel
As to B6, the binding result in assay [2] and in assay [3] was “no binding” each time.
With B7, the “relative luciferase activity (mammalian two-hybrid reporter)” value in assay [4] turned out to be 250 fold.

B8: Apaf-1 CARD domain (residues 1-108) in pCMV-BD (other, UniProt P04386 1-147, looked up)
chain: MKLLSSIEQACDICRLKKLKCSKEKPKCAKCLKNNWECRYSPKTKRSPLTRAHLTEVESRLERLEQLFLLIFPREDLDMILKMDSLQDIKALLTGLFVQDNVNKDAVTDRLASVETDMPLTLRQHRISATSSSEESSNKGQRQLTVSMDAKARNCLLQHREALEKDIKTSYIMDHMISDGFLTISEEEKVRNEPTQQQRAAMLIKMILKKDNDSYVSFYNALLHEGYKDLAALLHDGIPVVSSSSGKDSVSGITS
notes: as for B3
In the case of B8, the binding result in assay [2] and in assay [3] was “no binding” throughout.

B9: ARC CARD domain (residues 1-110) in pCMV-BD (other, UniProt P04386 1-147, looked up)
chain: MKLLSSIEQACDICRLKKLKCSKEKPKCAKCLKNNWECRYSPKTKRSPLTRAHLTEVESRLERLEQLFLLIFPREDLDMILKMDSLQDIKALLTGLFVQDNVNKDAVTDRLASVETDMPLTLRQHRISATSSSEESSNKGQRQLTVSMGNAQERPSETIDRERKRLVETLQADSGLLLDALLARGVLTGPEYEALDALPDAERRVRRLLLLVQGKGEAACQELLRCAQRTAGAPDPAWDWQHVGPGYRDRSYDPPCP
notes: range 1-147;range 1-110; Member of the two-hybrid CARD panel
B9: the binding result in assay [2] and in assay [3] was “no binding” throughout.

B10: ASC CARD domain (residues 92-195) in pCMV-BD (other, UniProt P04386 1-147, looked up)
chain: MKLLSSIEQACDICRLKKLKCSKEKPKCAKCLKNNWECRYSPKTKRSPLTRAHLTEVESRLERLEQLFLLIFPREDLDMILKMDSLQDIKALLTGLFVQDNVNKDAVTDRLASVETDMPLTLRQHRISATSSSEESSNKGQRQLTVSGSGAAPAGIQAPPQSAAKPGLHFIDQHRAALIARVTNVEWLLDALYGKVLTDEQYQAVRAEPTNPSKMRKLFSFTPAWNWTCKDLLLQALRESQSYLVEDLERS
notes: range 1-147;range 92-195; Member of the two-hybrid CARD panel
On to B10, for which the binding result in assay [2] and in assay [3] was “no binding” throughout.

B11: CARD-9-CARD/BD (other, yeast)
chain: MKLLSSIEQACDICRLKKLKCSKEKPKCAKCLKNNWECRYSPKTKRSPLTRAHLTEVESRLERLEQLFLLIFPREDLDMILKMDSLQDIKALLTGLFVQDNVNKDAVTDRLASVETDMPLTLRQHRISATSSSEESSNKGQRQLTVSMSDYENDDECWNVLEGFRVTLTSVIDPSRITPYLRQCKVLNPDDEEQVLSDPNLVIRKRKVGVLLDILQRTGHKGYVAFLESLELYYPQLYKKVTGKEPARVFSMIIDAS
For the molecule B11, the “luciferase activity (mammalian two-hybrid reporter)” value in assay [5] was 75 fold.
